# Results as given in US20230406885A1, “CYCLIC PEPTIDES FOR TRAPPING INTERLEUKIN-1 BETA” (MERCK SHARP & DOHME LLC, priority 2022, published 2023).
# *1 amine or outer side, *2 acyl side, *3 side chain or, on linkers, in order; H or OH if unused. Primed or numbered codes have the meaning given here. [ ]: non-standard residue; d: D form. TyrEtNAc = L-tyrosine O-ethyl acetamide, (S)-3-(4-(2-acetamidoethoxy)phenyl)-2-aminopropanoic acid, CC(=O)NCCOc1ccc(C[C@H](N[*:1])C(=O)[*:2])cc1; 3AzaPhe4AcPip = (S)-3-(6-(4-acetylpiperazin-1-yl)pyridin-3-yl)-2-aminopropanoic acid, CC(=O)N1CCN(c2ccc(C[C@H](N[*:1])C(=O)[*:2])cn2)CC1; AEF′ = (S)-2-amino-3-(6-(2-aminoethoxy)pyridin-3-yl)propanoic acid, O=C([C@H](Cc1ccc(OCCN[*:3])nc1)N[*:1])[*:2]; AbuMph = (S)-2-amino-4-morpholinobutanoic acid, O=C([C@H](CCN1CCOCC1)N[*:1])[*:2]; Ala(piperidin-4-yl) = O=C([C@H](CC1CCN([*:3])CC1)N[*:1])[*:2]; Pro(trans-4-NH2) = O=C([C@@H]1C[C@@H](N[*:3])CN1[*:1])[*:2]; Trp(βS-Me,4-F) = C[C@@H](c1c[nH]c2cccc(F)c12)[C@H](N)C(=O)O; Bip(4'-COOH) = N[C@@H](Cc1ccc(-c2ccc(C(=O)O)cc2)cc1)C(=O)O; 1Nal(3S-Me) = C[C@@H](c1cccc2ccccc12)[C@H](N)C(=O)O; Phe(4-COOH) = N[C@@H](Cc1ccc(C(=O)O)cc1)C(=O)O; hTyr = N[C@@H](CCc1ccc(O)cc1)C(=O)O; hCha = N[C@@H](CCC1CCCCC1)C(=O)O; hPhe = N[C@@H](CCc1ccccc1)C(=O)O; dOrn = NCCC[C@@H](N)C(=O)O; dDab = NCC[C@@H](N)C(=O)O; dNMeA = CN[C@H](C)C(=O)O; Dab = NCC[C@H](N)C(=O)O
# B1: SEQ ID NO: 173 (Example No. 173) (peptide)
# peptide: cyclo([TyrEtNAc]W[Phe(4-COOH)]G[Pro(trans-4-NH2)][Trp(βS-Me,4-F)]D[dNMeA]G[Bip(4'-COOH)]WS[dA][TyrEtNAc])
# SMILES: CC(=O)NCCOc1ccc(C[C@@H]2NC(=O)[C@H](Cc3ccc(OCCNC(C)=O)cc3)NC(=O)[C@@H](C)NC(=O)[C@H](CO)NC(=O)[C@H](Cc3c[nH]c4ccccc34)NC(=O)[C@H](Cc3ccc(-c4ccc(C(=O)O)cc4)cc3)NC(=O)CNC(=O)[C@@H](C)N(C)C(=O)[C@H](CC(=O)O)NC(=O)[C@H]([C@@H](C)c3c[nH]c4cccc(F)c34)NC(=O)[C@@H]3C[C@@H](N)CN3C(=O)CNC(=O)[C@H](Cc3ccc(C(=O)O)cc3)NC(=O)[C@H](Cc3c[nH]c4ccccc34)NC2=O)cc1
# B2: SEQ ID NO: 172 (Example No. 172) (peptide)
# peptide: cyclo([TyrEtNAc]W[Phe(4-COOH)]G[Pro(trans-4-NH2)][Trp(βS-Me,4-F)]D[dNMeA]G[Bip(4'-COOH)]WS[dA][hTyr])
# SMILES: CC(=O)NCCOc1ccc(C[C@@H]2NC(=O)[C@H](CCc3ccc(O)cc3)NC(=O)[C@@H](C)NC(=O)[C@H](CO)NC(=O)[C@H](Cc3c[nH]c4ccccc34)NC(=O)[C@H](Cc3ccc(-c4ccc(C(=O)O)cc4)cc3)NC(=O)CNC(=O)[C@@H](C)N(C)C(=O)[C@H](CC(=O)O)NC(=O)[C@H]([C@@H](C)c3c[nH]c4cccc(F)c34)NC(=O)[C@@H]3C[C@@H](N)CN3C(=O)CNC(=O)[C@H](Cc3ccc(C(=O)O)cc3)NC(=O)[C@H](Cc3c[nH]c4ccccc34)NC2=O)cc1
# B3: SEQ ID NO: 169 (Example No. 169) (peptide)
# peptide: cyclo([TyrEtNAc]W[Phe(4-COOH)]G[Pro(trans-4-NH2)][Trp(βS-Me,4-F)]D[dNMeA]G[Bip(4'-COOH)]WL[dK][hTyr])
# SMILES: CC(=O)NCCOc1ccc(C[C@@H]2NC(=O)[C@H](CCc3ccc(O)cc3)NC(=O)[C@@H](CCCCN)NC(=O)[C@H](CC(C)C)NC(=O)[C@H](Cc3c[nH]c4ccccc34)NC(=O)[C@H](Cc3ccc(-c4ccc(C(=O)O)cc4)cc3)NC(=O)CNC(=O)[C@@H](C)N(C)C(=O)[C@H](CC(=O)O)NC(=O)[C@H]([C@@H](C)c3c[nH]c4cccc(F)c34)NC(=O)[C@@H]3C[C@@H](N)CN3C(=O)CNC(=O)[C@H](Cc3ccc(C(=O)O)cc3)NC(=O)[C@H](Cc3c[nH]c4ccccc34)NC2=O)cc1
# B4: SEQ ID NO: 166 (Example No. 166) (peptide)
# peptide: cyclo([TyrEtNAc]W[Phe(4-COOH)]G[Pro(trans-4-NH2)][Trp(βS-Me,4-F)]D[dNMeA]G[Bip(4'-COOH)]WL[dA][hPhe])
# SMILES: CC(=O)NCCOc1ccc(C[C@@H]2NC(=O)[C@H](CCc3ccccc3)NC(=O)[C@@H](C)NC(=O)[C@H](CC(C)C)NC(=O)[C@H](Cc3c[nH]c4ccccc34)NC(=O)[C@H](Cc3ccc(-c4ccc(C(=O)O)cc4)cc3)NC(=O)CNC(=O)[C@@H](C)N(C)C(=O)[C@H](CC(=O)O)NC(=O)[C@H]([C@@H](C)c3c[nH]c4cccc(F)c34)NC(=O)[C@@H]3C[C@@H](N)CN3C(=O)CNC(=O)[C@H](Cc3ccc(C(=O)O)cc3)NC(=O)[C@H](Cc3c[nH]c4ccccc34)NC2=O)cc1
# B5: SEQ ID NO: 174 (Example No. 174) (peptide)
# peptide: cyclo([3AzaPhe4AcPip]W[Phe(4-COOH)]G[Pro(trans-4-NH2)][1Nal(3S-Me)]D[dNMeA]G[Bip(4'-COOH)][Dab]L[dA][hCha])
# SMILES: CC(=O)N1CCN(c2ccc(C[C@@H]3NC(=O)[C@H](CCC4CCCCC4)NC(=O)[C@@H](C)NC(=O)[C@H](CC(C)C)NC(=O)[C@H](CCN)NC(=O)[C@H](Cc4ccc(-c5ccc(C(=O)O)cc5)cc4)NC(=O)CNC(=O)[C@@H](C)N(C)C(=O)[C@H](CC(=O)O)NC(=O)[C@H]([C@@H](C)c4cccc5ccccc45)NC(=O)[C@@H]4C[C@@H](N)CN4C(=O)CNC(=O)[C@H](Cc4ccc(C(=O)O)cc4)NC(=O)[C@H](Cc4c[nH]c5ccccc45)NC3=O)cn2)CC1
# B6: SEQ ID NO: 171 (Example No. 171) (peptide)
# peptide: cyclo([TyrEtNAc]W[Phe(4-COOH)]G[Pro(trans-4-NH2)][Trp(βS-Me,4-F)]D[dNMeA]G[Bip(4'-COOH)]WL[dS][hTyr])
# SMILES: CC(=O)NCCOc1ccc(C[C@@H]2NC(=O)[C@H](CCc3ccc(O)cc3)NC(=O)[C@@H](CO)NC(=O)[C@H](CC(C)C)NC(=O)[C@H](Cc3c[nH]c4ccccc34)NC(=O)[C@H](Cc3ccc(-c4ccc(C(=O)O)cc4)cc3)NC(=O)CNC(=O)[C@@H](C)N(C)C(=O)[C@H](CC(=O)O)NC(=O)[C@H]([C@@H](C)c3c[nH]c4cccc(F)c34)NC(=O)[C@@H]3C[C@@H](N)CN3C(=O)CNC(=O)[C@H](Cc3ccc(C(=O)O)cc3)NC(=O)[C@H](Cc3c[nH]c4ccccc34)NC2=O)cc1
# B7: SEQ ID NO: 162 (Example No. 162) (peptide)
# peptide: cyclo([TyrEtNAc]W[Phe(4-COOH)]G[Pro(trans-4-NH2)][Trp(βS-Me,4-F)]D[dNMeA]G[Bip(4'-COOH)]W[AbuMph][dA]G)
# SMILES: CC(=O)NCCOc1ccc(C[C@@H]2NC(=O)CNC(=O)[C@@H](C)NC(=O)[C@H](CCN3CCOCC3)NC(=O)[C@H](Cc3c[nH]c4ccccc34)NC(=O)[C@H](Cc3ccc(-c4ccc(C(=O)O)cc4)cc3)NC(=O)CNC(=O)[C@@H](C)N(C)C(=O)[C@H](CC(=O)O)NC(=O)[C@H]([C@@H](C)c3c[nH]c4cccc(F)c34)NC(=O)[C@@H]3C[C@@H](N)CN3C(=O)CNC(=O)[C@H](Cc3ccc(C(=O)O)cc3)NC(=O)[C@H](Cc3c[nH]c4ccccc34)NC2=O)cc1
# B8: SEQ ID NO: 165 (Example No. 165) (peptide)
# peptide: cyclo([TyrEtNAc]W[Phe(4-COOH)]G[Pro(trans-4-NH2)][Trp(βS-Me,4-F)]D[dNMeA]G[Bip(4'-COOH)]WL[dA][Ala(piperidin-4-yl)])
# SMILES: CC(=O)NCCOc1ccc(C[C@@H]2NC(=O)[C@H](CC3CCNCC3)NC(=O)[C@@H](C)NC(=O)[C@H](CC(C)C)NC(=O)[C@H](Cc3c[nH]c4ccccc34)NC(=O)[C@H](Cc3ccc(-c4ccc(C(=O)O)cc4)cc3)NC(=O)CNC(=O)[C@@H](C)N(C)C(=O)[C@H](CC(=O)O)NC(=O)[C@H]([C@@H](C)c3c[nH]c4cccc(F)c34)NC(=O)[C@@H]3C[C@@H](N)CN3C(=O)CNC(=O)[C@H](Cc3ccc(C(=O)O)cc3)NC(=O)[C@H](Cc3c[nH]c4ccccc34)NC2=O)cc1
# B9: SEQ ID NO: 168 (Example No. 168) (peptide)
# peptide: cyclo([TyrEtNAc]W[Phe(4-COOH)]G[Pro(trans-4-NH2)][Trp(βS-Me,4-F)]D[dNMeA]G[Bip(4'-COOH)]WL[dDab][hTyr])
# SMILES: CC(=O)NCCOc1ccc(C[C@@H]2NC(=O)[C@H](CCc3ccc(O)cc3)NC(=O)[C@@H](CCN)NC(=O)[C@H](CC(C)C)NC(=O)[C@H](Cc3c[nH]c4ccccc34)NC(=O)[C@H](Cc3ccc(-c4ccc(C(=O)O)cc4)cc3)NC(=O)CNC(=O)[C@@H](C)N(C)C(=O)[C@H](CC(=O)O)NC(=O)[C@H]([C@@H](C)c3c[nH]c4cccc(F)c34)NC(=O)[C@@H]3C[C@@H](N)CN3C(=O)CNC(=O)[C@H](Cc3ccc(C(=O)O)cc3)NC(=O)[C@H](Cc3c[nH]c4ccccc34)NC2=O)cc1
# B10: SEQ ID NO: 167 (Example No. 167) (peptide)
# peptide: cyclo([TyrEtNAc]W[Phe(4-COOH)]G[Pro(trans-4-NH2)][Trp(βS-Me,4-F)]D[dNMeA]G[Bip(4'-COOH)]WL[dA][hTyr])
# SMILES: CC(=O)NCCOc1ccc(C[C@@H]2NC(=O)[C@H](CCc3ccc(O)cc3)NC(=O)[C@@H](C)NC(=O)[C@H](CC(C)C)NC(=O)[C@H](Cc3c[nH]c4ccccc34)NC(=O)[C@H](Cc3ccc(-c4ccc(C(=O)O)cc4)cc3)NC(=O)CNC(=O)[C@@H](C)N(C)C(=O)[C@H](CC(=O)O)NC(=O)[C@H]([C@@H](C)c3c[nH]c4cccc(F)c34)NC(=O)[C@@H]3C[C@@H](N)CN3C(=O)CNC(=O)[C@H](Cc3ccc(C(=O)O)cc3)NC(=O)[C@H](Cc3c[nH]c4ccccc34)NC2=O)cc1
# B11: SEQ ID NO: 170 (Example No. 170) (peptide)
# peptide: cyclo([TyrEtNAc]W[Phe(4-COOH)]G[Pro(trans-4-NH2)][Trp(βS-Me,4-F)]D[dNMeA]G[Bip(4'-COOH)]WL[dOrn][hTyr])
# SMILES: CC(=O)NCCOc1ccc(C[C@@H]2NC(=O)[C@H](CCc3ccc(O)cc3)NC(=O)[C@@H](CCCN)NC(=O)[C@H](CC(C)C)NC(=O)[C@H](Cc3c[nH]c4ccccc34)NC(=O)[C@H](Cc3ccc(-c4ccc(C(=O)O)cc4)cc3)NC(=O)CNC(=O)[C@@H](C)N(C)C(=O)[C@H](CC(=O)O)NC(=O)[C@H]([C@@H](C)c3c[nH]c4cccc(F)c34)NC(=O)[C@@H]3C[C@@H](N)CN3C(=O)CNC(=O)[C@H](Cc3ccc(C(=O)O)cc3)NC(=O)[C@H](Cc3c[nH]c4ccccc34)NC2=O)cc1
# B12: SEQ ID NO: 163 (Example No. 163) (peptide)
# peptide: cyclo([TyrEtNAc]W[Phe(4-COOH)]G[Pro(trans-4-NH2)][Trp(βS-Me,4-F)]D[dNMeA]G[Bip(4'-COOH)]W[Dab][dA][hPhe])
# SMILES: CC(=O)NCCOc1ccc(C[C@@H]2NC(=O)[C@H](CCc3ccccc3)NC(=O)[C@@H](C)NC(=O)[C@H](CCN)NC(=O)[C@H](Cc3c[nH]c4ccccc34)NC(=O)[C@H](Cc3ccc(-c4ccc(C(=O)O)cc4)cc3)NC(=O)CNC(=O)[C@@H](C)N(C)C(=O)[C@H](CC(=O)O)NC(=O)[C@H]([C@@H](C)c3c[nH]c4cccc(F)c34)NC(=O)[C@@H]3C[C@@H](N)CN3C(=O)CNC(=O)[C@H](Cc3ccc(C(=O)O)cc3)NC(=O)[C@H](Cc3c[nH]c4ccccc34)NC2=O)cc1
# Target: Recombinant human IL-1β (BioLegend 579404) (human, UniProt P01584 117-269)
# Test: cell-based or functional assay
row,Binder,MRC5 IC50 [nM]
1,B1,0.959
2,B2,0.246
3,"cyclo([TyrEtNAc]W[Phe(4-COOH)]G[Pro(trans-4-NH2)][Trp(βS-Me,4-F)]D[dNMeA]G[Bip(4'-COOH)]WL[dA][AEF′]) [SEQ ID NO: 164 (Example No. 164)]",0.459
4,B3,0.112
5,B4,0.149
6,B5,0.015
7,B6,0.145
8,B7,0.749
9,B8,0.781
10,B9,0.0847
11,B10,0.136
12,B11,0.0966
13,B12,0.156
